Consider one substance from patent US20050058747.

In series [1] the target is T1, soybean Kunitz trypsin inhibitor (UniProt P01070).
T1 sequence: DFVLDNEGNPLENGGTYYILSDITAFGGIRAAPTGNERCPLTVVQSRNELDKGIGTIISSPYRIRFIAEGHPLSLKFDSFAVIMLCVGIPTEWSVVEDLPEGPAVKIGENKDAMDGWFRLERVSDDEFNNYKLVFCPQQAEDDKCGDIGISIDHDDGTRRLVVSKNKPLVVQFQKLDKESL

Series [2] relates to Soybean beta-conglycinin.
Series [3] deals with T2, soybean Bowman-Birk inhibitor (UniProt P01055).
T2 sequence: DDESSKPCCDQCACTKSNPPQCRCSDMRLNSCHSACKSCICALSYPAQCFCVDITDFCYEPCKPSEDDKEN

In series [4] the target is Soybean agglutinin (SBA) (UniProt P05046).
Series [5] deals with Soybean glycinin.

Chain of Soybean agglutinin (SBA) (P05046 33-285): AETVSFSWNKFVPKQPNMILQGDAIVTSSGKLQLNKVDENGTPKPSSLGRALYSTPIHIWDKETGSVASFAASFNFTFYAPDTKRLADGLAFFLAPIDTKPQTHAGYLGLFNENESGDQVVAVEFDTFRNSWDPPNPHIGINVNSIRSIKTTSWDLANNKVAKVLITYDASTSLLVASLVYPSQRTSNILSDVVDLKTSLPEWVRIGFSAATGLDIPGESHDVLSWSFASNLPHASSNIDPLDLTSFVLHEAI

As to “protease from Nocardiopsis sp. NRRL 18262”, the Percentage degradation of isolated soy proteins in series [1] came to 94%; in series [2] it was 95%; in series [3], 35%; in series [4], 100%; in series [5], 98%.
